The values below are quoted from earlier work in paper PMC2848813.

The target in the data set is Hsp33 (Escherichia coli) (UniProt P0A6Y5).

For the substance Hsp33 (from UniProt P0A6Y5), the equilibrium dissociation constant (Kd) – broadly, the free concentration of one partner at which half of the binding sites on the other are occupied at equilibrium, for simple one-to-one binding – is 600 nM.
